US20180356429A1 (Genentech, published 2018)

B1: 11H4 (anti-IL-13 mu11H4) (antibody, IgG1, V domains shown)
VH: QVTLKESGPGILQPSQTLSLTCSFSGFSLSTSDMGVGWIRQPSGKGLEWLAHIWWDDVKRYNPALKSRLTISKDTSSSQVFLKIASVDTADTATYYCARIGTNYGYDGLFDYWGQGTTLTVSS
VL: DIVLTQSPASLAVSLGQRATISCRASQSVSTSSYSYMNWYQQTPGQPPKLLIKYASNLESGIPARFSGSGSGTDFTLNIHPVEEEDTATYYCQHSWEIPYTFGGGT
notes: Murine antibody; In the IMPACT IL-13 assay it was used as full-length IgG1 labelled with digoxigenin
B2: biotinylated lebrikizumab F(ab')2 (other)
VH: VTLRESGPALVKPTQTLTLTCTVSGFSLSAYSVNWIRQPPGKALEWLAMIWGDGKIVYNSALKSRLTISKDTSKNQVVLTMTNMDPVDTATYYCAGDGYYPYAMDNWGQGSLVTVSS
VL: DIVMTQSPDSLSVSLGERATINCRASKSVDSYGNSFMHWYQQKPGQPPKLLIYLASNLESGVPDRFSGSGSGTDFTLTISSLQAEDVAVYYCQQNNEDPRTFGGGTKVEIK
modifications: biotinylated (sites not given)
notes: F(ab')2 fragment of lebrikizumab, the capture reagent of the IMPACT IL-13 assay; also called capture antibody; first antibody

Tests used:
[1] = molecular target: T1, Recombinant human IL-13 (R&D Systems, MN, catalog no. 213-ILB/CF) (human, UniProt P35225 33-146); test: sandwich pair screen, 100 pg/mL recombinant IL-13 against blank, binder is detection Ab 11H4; capture Ab 228B/C
T1 construct: also called recombinant IL-13

[2] = molecular target: T1, Recombinant human IL-13 (R&D Systems, …); test: sandwich pair screen, 100 pg/mL recombinant IL-13 against blank, binder is detection Ab 11H4; capture Ab MILR1444A
[3] = molecular target: T2, native IL-13 in human serum (human, UniProt P35225 33-146); test: pre-incubation of serum with excess (100 ug/mL) capture antibody for 1 h at room temperature, then IMPACT IL-13 sandwich assay
T2 construct: Endogenous IL-13 in serum of healthy volunteers and of patients with asthma, IPF or atopic dermatitis; also called serum IL-13; endogenous IL-13
T2 sequence (P35225 other isoform, or with tags, fused parts or gaps): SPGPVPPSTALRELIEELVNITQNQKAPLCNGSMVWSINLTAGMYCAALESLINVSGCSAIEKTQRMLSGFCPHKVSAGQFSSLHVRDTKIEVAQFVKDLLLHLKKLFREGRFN

T1 sequence (P35225 other isoform, or with tags, fused parts or gaps): as above

Row | Binder | positive/negative ratio [1] | positive/negative ratio [2] | binding result [3]
1 | B1 | 317 | 22800 | 
2 | B2 |  |  | binds
